# According to US20220348650A1 (BIO THERA SOLUTIONS, published 2022):
# T1: full-length human TIGIT on the cell surface (Jurkat-hTIGIT 2E6, CTI-Jurkat, primary human CD3+ cells) (human, UniProt Q495A1 22-244)
# T1 sequence (looked up): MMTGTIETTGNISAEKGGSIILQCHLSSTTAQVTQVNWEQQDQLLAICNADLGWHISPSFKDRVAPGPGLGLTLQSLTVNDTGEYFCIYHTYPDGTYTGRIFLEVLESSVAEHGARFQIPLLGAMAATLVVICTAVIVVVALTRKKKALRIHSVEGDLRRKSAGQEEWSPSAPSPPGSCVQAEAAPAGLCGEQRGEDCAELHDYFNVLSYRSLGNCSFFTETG
# T2: human TIGIT (antigen of the ELISA and of the m10D8 Biacore assay; construct not stated) (human, UniProt Q495A1 22-141)
# T2 sequence: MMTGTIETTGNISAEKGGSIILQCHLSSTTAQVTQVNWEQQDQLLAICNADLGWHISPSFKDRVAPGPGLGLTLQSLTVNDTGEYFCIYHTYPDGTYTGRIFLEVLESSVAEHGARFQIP
# T3: TIGIT-his tag antigen (UniProt Q495A1 22-141, limits assumed)
# T3 construct: also called univalent TIGIT-his; not shown: his tag
# T3 sequence (looked up): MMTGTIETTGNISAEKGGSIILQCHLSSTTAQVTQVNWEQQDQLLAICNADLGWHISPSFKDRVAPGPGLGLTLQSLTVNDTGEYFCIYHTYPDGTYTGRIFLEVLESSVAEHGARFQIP
# T4: mouse TIGIT (mouse, UniProt P86176 29-148, limits assumed)
# T4 sequence: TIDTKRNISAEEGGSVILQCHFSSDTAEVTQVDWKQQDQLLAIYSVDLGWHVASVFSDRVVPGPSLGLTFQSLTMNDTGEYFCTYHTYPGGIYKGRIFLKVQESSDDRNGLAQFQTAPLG
# Assays:
# [1] = target: T1, full-length human TIGIT on the cell …; test: cell-based or functional assay
# [2] = target: T2, human TIGIT (antigen of the ELISA and …); test: ELISA, binding to TIGIT (FIG. 11)
# [3] = target: T2, human TIGIT (antigen of the ELISA and …); test: ELISA, binding to TIGIT (FIG. 12)
# [4] = target: T3, TIGIT-his tag antigen; test: SPR-Biacore, TIGIT-his tag antigen (second batch)
# [5] = target: T1, full-length human TIGIT on the cell …; test: binding to Jurkat-hTIGIT 2E6 cells, flow cytometry (FIG. 23)
# [6] = target: T5, TIGIT-Fc fusion protein (human TIGIT extracellular region fused to human IgG1 constant region) (human); test: competition ELISA, blocks PVR binding to TIGIT (method of Example 3)
# [7] = target: T1, full-length human TIGIT on the cell …; test: flow cytometry competition with 80 nM biotinylated PVR-Fc on Jurkat-hTIGIT cells
# Experimental: (§1) The antibody was serially two-fold diluted from 15 nM to the 10th concentration (including 0 nM). The 10 concentration gradients of antibody were separately transferred into 10 centrifuge tubes each containing 1×10⁶ Jurkat-hTIGIT cells. The cells were then resuspended, and the mixture was incubated at 4° C. for 1 hour. The cells were centrifuged. The supernatant was discarded and the cells were washed twice with PBS. The cells were resuspended in 100 μL of 1:2000 diluted streptavidin PE (Thermo, Cat. No.: 12-4317-87) and incubated at 4° C. for 40 minutes. The cells were centrifuged, and the supernatant was discarded. The cells were washed twice with PBS, resuspended in 200 μL of PBS, and were detected for fluorescent signal using a flow analyzer (mean FL2-A). Finally, the collected fluorescent signals were plotted by 4-parameter fitting for analysis, and the IC₅₀ was calculated.
# [8] = target: T1, full-length human TIGIT on the cell …; test: flow cytometry on Jurkat-hTIGIT cells: antibody titrated against biotinylated PVR-Fc (blocked ligand), detected with streptavidin PE, mean FL2-A
# Experimental: as §1
# [9] = target: T4, mouse TIGIT; test: ELISA on mouse TIGIT, OD450
# [10] = target: T5, TIGIT-Fc fusion protein (human TIGIT …); test: competition ELISA: TIGIT-Fc coated at 2 µg/mL, antibody titrated in 2 µg/mL PVR-Fc-bio (blocked ligand), OD450
# [11] = target: T2, human TIGIT (antigen of the ELISA and …); test: Biacore SPR; antigen not given
# [12] = target: T3, TIGIT-his tag antigen; test: SPR-Biacore; series 3.125 to 50 nM printed on the panel
# [13] = target: T2, human TIGIT (antigen of the ELISA and …); test: ELISA, binding to TIGIT
# [14] = target: T3, TIGIT-his tag antigen; test: SPR-Biacore, TIGIT-his tag antigen
Binder,EC50 [2],EC50 [3],Kd [4],koff [4],kon [4],IC50 [6],IC50 [7],EC50 [13],Kd [14],koff [14],kon [14],further results
"h10D8OFKF (antibody, human IgG1, kappa, V domains shown, fucose removed from the glycan (made in engineered CHO host cells)) VH: QVQLVESGGGVVQPGRSLRLDCKASGFTFSSYGMSWVRQAPGKGLELVATINSNGGSTYYPDSVKGRFTISRDNSKNTLFLQMNSLRAEDTAVYYCARLGTGTLGFAYWGQGTLVTVSS VL: EIVMTQSPATLSLSPGERATLSCKASQDVKTAVSWYQQKPGQAPRLLIYWASTRATGIPARFSGSGSGTDYTLTISSLEPEDFAVYYCQQHYSTPWTFGQGTKVEIKR",–,–,–,–,–,–,–,–,–,–,–,"ADCC activity EC50 [1]: 0.0152 nM; ADCC activity, fold of h10D8OF [1]: 8.8 times that of h10D8OF"
"h10D8OF (antibody, human IgG1, kappa, V domains shown, Humanized m10D8, second round; LCDR2 is the mutant WASTRAT; also called anti-TIGIT antibody h10D8OF) VH: QVQLVESGGGVVQPGRSLRLDCKASGFTFSSYGMSWVRQAPGKGLELVATINSNGGSTYYPDSVKGRFTISRDNSKNTLFLQMNSLRAEDTAVYYCARLGTGTLGFAYWGQGTLVTVSS VL: EIVMTQSPATLSLSPGERATLSCKASQDVKTAVSWYQQKPGQAPRLLIYWASTRATGIPARFSGSGSGTDYTLTISSLEPEDFAVYYCQQHYSTPWTFGQGTKVEIKR",0.0233 µg/mL,0.0427 µg/mL,3.63 nM,0.00183 s⁻¹,502000 M⁻¹ s⁻¹,0.159 µg/mL,11.3 nM,–,–,–,–,ADCC activity EC50 [1]: 0.125 nM; EC50 [5]: 0.696 nM; IC50 [8]: 0.656 nM
"10A7 antibody (hamster anti-mouse TIGIT antibody, positive control) (antibody, V domains shown, also called positive anti-TIGIT antibody (10A7)) VH: EVQLVESGGGLTQPGKSLKLSCEASGFTFSSFTMHWVRQSPGKGLEWVAFIRSGSGIVFYADAVRGRFTISRDNAKNLLFLQMNDLKSEDTAMYYCARRPLGHNTFDSWGQGTLVTVSS VL: DIVMTQSPSSLAVSPGEKVTMTCKSSQSLYYSGVKENLLAWYQQKPGQSPKLLIYYASIRFTGVPDRFTGSGSGTDYTLTITSVQAEDMGQYFCQQGINNPLTFGDGTKLEIKR",–,–,–,–,–,–,–,–,–,–,–,EC50 (read off the curve) [9]: ~0.02 µg/mL; IC50 [10]: 0.263 µg/mL
"recombinant mouse anti-human TIGIT antibody m10D8 (antibody, mouse IgG2a, V domains shown) VH: EVKLQESGGGLVQPGGSLKLSCAASGFTFSSYGMSWVRQNPDKRLELVATINSNGGSTYYPDSVKGRFTISRDNAKNTLYLQMSSLKSEDTAMYYCARLGTGTLGFAYWGQGTLVTVSS VL: DIVMTQAHKFMSTSGGDRVSITCKASQDVKTAVSWYQQKPGQSPKLLIYWASTRHTGVPDRFTGSGSGTDYTLTISSVQAEDLALYYCQQHYSTPWTFGGGTKLEIKR",–,–,–,–,–,–,–,–,–,–,–,binding result [9]: no binding (tested: about 2 µg/mL); Kd [11]: 0.197 nM; koff [11]: 0.0002 s⁻¹; kon [11]: 1.02e+06 M⁻¹ s⁻¹; IC50 [10]: 0.273 µg/mL
"Tiragolumab (positive control antibody) (antibody, human IgG1, kappa, V domains shown) VH: EVQLQQSGPGLVKPSQTLSLTCAISGDSVSSNSAAWNWIRQSPSRGLEWLGKTYYRFKWYSDYAVSVKGRITINPDTSKNQFSLQLNSVTPEDTAVFYCTRESTTYDLLAGPFDYWGQGTLVTVSS VL: not shown",–,0.0536 µg/mL,0.113 nM,9.24e-05 s⁻¹,818000 M⁻¹ s⁻¹,0.429 µg/mL,–,–,–,–,–,EC50 [5]: 1.91 nM; Kd [12]: 0.133 nM; IC50 [8]: 2.38 nM
"h10D8V1 (antibody, human IgG1, kappa, Humanized m10D8, first round) heavy: not shown light: DIQMTQSPSTLSAFVGDTITITCKASQDVKTAVSWYQQKPGQPPKLLIYWASTRHTGVPDRFSGSGSGTDYTLTISSLQAEDVAVYYCQQHYSTPWTFGQGTKVDIKRTVAAPSVFIFPPSDEQLKSGTASVVCLLNNFYPREAKVQWKVDNALQSGNSQESVTEQDSKDSTYSLSSTLTLSKADYEKHKVYACEVTHQGLSSPVTKSFNRGEC",–,–,–,–,–,–,–,0.0762 µg/mL,2.18 nM,0.000446 s⁻¹,205000 M⁻¹ s⁻¹,–
"h10D8V2 (antibody, human IgG1, kappa, Same variable regions as h10D8V1; differs at EU positions 356 and 358 of the constant region) heavy: not shown light: DIQMTQSPSTLSAFVGDTITITCKASQDVKTAVSWYQQKPGQPPKLLIYWASTRHTGVPDRFSGSGSGTDYTLTISSLQAEDVAVYYCQQHYSTPWTFGQGTKVDIKRTVAAPSVFIFPPSDEQLKSGTASVVCLLNNFYPREAKVQWKVDNALQSGNSQESVTEQDSKDSTYSLSSTLTLSKADYEKHKVYACEVTHQGLSSPVTKSFNRGEC",–,0.0531 µg/mL,0.468 nM,0.00048 s⁻¹,1.02e+06 M⁻¹ s⁻¹,–,–,0.0924 µg/mL,2.55 nM,0.000492 s⁻¹,193000 M⁻¹ s⁻¹,–
"h10D8V4 (antibody, human IgG1, kappa, V domains shown) VH: QVQLQESGGGLVQPGGSLRLSCAASGFTFSSYGMSWVRQAPGKGLELVATINSNGGSTYYPDSVKGRFTISRDNAKNTLYLQMNSLRAEDTAVYYCARLGTGTLGFAYWGQGTLVTVSS VL: DIVMTQSPSTLSASVGDRVTITCKASQDVKTAVSWYQQKPGQPPKLLIYWASTRHTGVPDRFSGSGSGTDYTLTISSLQAEDVAVYYCQQHYSTPWTFGQGTKVEIKR",0.0256 µg/mL,–,–,–,–,0.217 µg/mL,15.8 nM,–,–,–,–,–
"h10D8V3 (antibody, human IgG1, kappa, V domains shown) VH: EVQLVESGGGLVQPGGSLRLSCAASGFTFSSYGMSWVRQAPGKGLELVATINSNGGSTYYPDSVKGRFTISRDNSKNTLYLQMNSLRAEDTAVYYCARLGTGTLGFAYWGQGTLVTVSS VL: DIQMTQSPSSLSASVGDRVTITCKASQDVKTAVSWYQQKPGKAPKLLIYWASTRHTGVPSRFSGSGSGTDYTLTISSLQPEDFATYYCQQHYSTPWTFGGGTKVEIKR",–,–,–,–,–,–,–,0.0526 µg/mL,14.1 nM,0.00114 s⁻¹,81200 M⁻¹ s⁻¹,–
"h10D8V5 (antibody, human IgG1, kappa, V domains shown) VH: QVQLQESGGGLVQPGGSLRLSCAASGFTFSSYGMSWVRQNPDKRLELVATINSNGGSTYYPDSVKGRFTISRDNAKNTLYLQMNSLRAEDTAMYYCARLGTGTLGFAYWGQGTLVTVSS VL: DIVMTQSPKTLSASVGDRVTITCKASQDVKTAVSWYQQKPGQSPKLLIYWASTRHTGVPDRFSGSGSGTDYTLTISSLQAEDVALYYCQQHYSTPWTFGGGTKVEIKR",0.0241 µg/mL,–,–,–,–,0.284 µg/mL,10.4 nM,–,–,–,–,–
